Results as given in the DeepSol protein solubility set.

Assay: soluble on expression in E. coli; label from the status in PepcDB or PDB records

Row | Sequence | soluble on expression in E. coli
1 | MGSDKIHHHHHHKIEELTAVPLQIGYEKTLHLIFPTEVKYYSIGGDYVIGEKVVNCPGIIRLKAAEENFPGETTLSVVTADTKFYSYSISYNAHPAQSYVRIGGEAPTPHTLPVGKEKQLFLIFPAGITYVDYGSTNVEVDKAEGVDNILAVKAVQPYKEDTNISVVLEGGKFYTFDLRYVPAPERFSFVIDKEDTQRVAILDEKERSYGQKERIREAVAKRTPLDLGLRDKNSGMEFEVGNIFIDGDVLLLRMTLTNRTQIGYTTDFMRFYIQDAKIRKKTAVQQLEQNILFTFDYPEEIPAHESRTFTVAMNKFTIPDKKRLIIEIQERNGGRHFLYKLKNKSLLTAEEVFRSRKQQETEDEADKILRRIAR | not soluble
2 | MNIHKALCLSAGVSVALISLAAQAAETVTIATVNNGDMIRMQRLSKIFEQQHPDIKLNWVVLEENVLRQRLTTDIATQGGQFDVLTIGTYETPLWGAKQWLEPITDLAPEYDLEDIFPSVRQGLSVKNTLYALPFYGESTITYYRTDLFKQAGLSMPERPTWTQLGEFAAKLHQPDKGVYGMCLRGKAGWGENIALLSTMANAFGARWFDEHWKPELNSPEWANAANFYVNTLKNYGPPGVSSNGFNETLALFNSGKCALWVDASVAGSFTTDKEQSKVVDSVGFAPAPVEVTDKGSSWLYAWSLAIPATSRHKDAAKAFITWATSKAYIQLVAEKDGITNVPPGTRTSTYSEAYLKAAPFAKVTLQMMQHADPAQPSAKPVPYVGIQYVTIPEFQAIGTSVGKLFSAAVTGQTTTEQALTAAQAVTEREMKRAGYPK | not soluble
3 | MSHTVAGGGSGDHSHQVRVKAYYRGDIMITHFEPSISFEGLCNEVRDMCSFDNEQLFTMKWIDEEGDPCTVSSQLELEEAFRLYELNKDSELLIHVFPCVPERPGMPCPGEDKSIYRRGARRWRKLYCANGHTFQAKRFNRRAHCAICTDRIWGLGRQGYKCINCKLLVHKKCHKLVTIECGRHSLPQEPVMPMDQSSMHSDHAQTVIPYNPSSHESLDQVGEEKEAMNTRESGKASSSLGLQDFDLLRVIGRGSYAKVLLVRLKKTDRIYAMKVVKKELVNDDEDIDWVQTEKHVFEQASNHPFLVGLHSCFQTESRLFFVIEYVNGGDLMFHMQRQRKLPEEHARFYSAEISLALNYLHERGIIYRDLKLDNVLLDSEGHIKLTDYGMCKEGLRPGDTTSTFCGTPNYIAPEILRGEDYGFSVDWWALGVLMFEMMAGRSPFDIVGSSDNPDQNTEDYLFQVILEKQIRIPRSMSVKAASVLKSFLNKDPKERLGCLPQTGFADIQGHPFFRNVDWDMMEQKQVVPPFKPNISGEFGLDNFDSQFTNERVQLTPDDDDIVRKIDQSEFEGFEYINPLLMSAEECV | not soluble
4 | RSIRLPETIDLGALYLSMKDTEKGIKELNLEKDKKIFNHCFTGNCVIDWLVSNQSVRNRQEGLMIASSLLNEGYLQPAGDMSKSAVDGTAENPFLDNPDAFYYFPDSGFFCEEN | soluble
5 | MRLFLLLLSLLLISITTAFALDKPDGSNSIEDQTALFFGKDDRTAVTNSRQWPWEAIGQVETASGNPCTATLISPRLVLTAGHCVLTPPGNIDQAVALRFISDKGHWKYQITDLKTRVDAKLGQKLKADGDGWIVPPAAAAYDFALIQLTNAAPIPIKPLPLWEGTANELTKALKLVNRKVTQAGYPLDNLNTLYKHEDCLVTGWAQQGVLAHQCDTLPGDSGSPLLLKNGNSWSLIAIQSSAPAAKERYLADNRALSVTAINNRLKKLVNKIADTTQ | not soluble
6 | MFNSKPLLTITLLAVSSVASAAEQALDAQQVAQLIEKADSYRLQDDSSKVVSLVRLYQDQELDKTRLYHVYTRPNRESLVVFKSAVEAGQKMLMMGDNYWLQMPKSRRPIRITPMQKLLGEASIGDISTLTWSQDYQGEWKATETLTINGQSIAAYRLALTAKTKGASYQKIDLWLSEQDAFPIKADLYLRSGKLAKQAQYGRATNLGKDYVSEMTLLDSIQPSKKTVIEYQEIVPWQLDNKFYNPSYLPKANTSEL | not soluble
7 | MATADVKSTVPHMDMDRGGAFDFSNCIRNQAMCKMGGKAPKLTSTGTTIVAVAFKGGLVMGADSRATAGNIIADKHCEKVHKLTESIYACGAGTAADLDQVTKMLSGNLRLLELNTGRKARVITALRQAKQHLFNYQGYIGAYLLIGGVDPTGPHLYMCSANGTTMAFPFTAQGSGSYAAITILERDFKVDMTKDEAEKLVQRALEAGMHGDNASGNSLNLVIIEPSETVFKGPIVPEFCKRPEPNDLVYKFQAGATKVLKHKTYKYDVVESMDITH | not soluble
8 | MSLRHLLRSLIGKTLAFFVEREDDNLTRVREHLMDLLDARPSPVRAQNLRSARQLLHKQADVFNRAFQAALQTSMDEEMRAVLPEAPASAVANDTSADPLDGMTLSLIDVCEVERILLVDRVAQRFTAHYDASVSALTQRLGVLLGRDVAALSSNPFRPEVFVRAFLLAWENSGLDKQATEDLMLSLDPLHSIDLTPLYADLNAMLTHAGIAAQPARRVIKSEGAGSSYLPLSPASAHAHLQGGEMRSGLGDLEPERARSAWDALAPAGRSIASHARQFLQRLGLASSSGQNDSGAGEGADWTPADGHETRTYLASADPEFMGYLGDLQAGAQAESAERILPGQHPGDRNVLRQMRDRDEVRRAPELDRGTVDALAEVFDFVFADQAIPVQMKFVIGRLQIPVLKAAMIDRDFFLSADHPARRLVDTLAQASIAWAPEKGESDPLYVRIENTVQRVLTEFEDDLALFSELLAEFTEFLFETEQQAQGRIEPAVDHERVGESFEQALAHADEVIHARIAALPSELPLAPFLAPFLTTQWREVLARAWLNVQASAAPWDSAVTSMDQLIWSTQPKTRIEERRQLVALLPELVRRLNAGLDAIEWVGEPRATFTRRLIATHMMAIRMTQAASVDSMSAALEANAGKEAMNELEQRRSGQLAGSVDDFDAMAQSFTRGLWFDFLLDEHTQHRCLLSWVSPMRTRLLFTNRDGFDAFVRSEREVAALLRHGRLHVIDQQPIVSRALDRIMSEGERKQEGHHHHHH | soluble
9 | MKKLIIATVLASISLSASAAETIRFAAEATYPPFEFIDANNKMQGFDIDLANALCKEMQADCTFTNQAFDSLIPSLKFKRFDAVISGMDITPERQKQVAFTQPYYDNSALFIAQKDKVADLAALKGKRVGMQNGSTHQKYLMEKHPEITAVPYDSYQNAILDLKNGRLDAVFGDTAVVNEWLKQNDQLAAVGDKVTDADYFGTGLGIAVRQSNTELQGKLDAALTKVKADGTYQTIYKKWFQQ | not soluble
10 | MSLDRPRCCLRGKECSINRFQQVESRWGYSGTSDRIRFSVNKRIFVVGFGLYGSIHGPTDYQVNIQIIHTDSNTVLGQNDTGFSCDGSASTFRVMFKEPVEVLPNVNYTACATLKGPDSHYGTKGMRKVTHESPTTGAKTCFTFCYAAGNNNGTSVEDGQIPEVIFYTEGHHHHHH | soluble
11 | MSLTQETALGAALKSAVQTMSKKKQTEMIADHIYGKYDVFKRFKPLALGIDQDLIAALPQYDAALIARVLANHCRRPRYLKALARGGKRFDLNNRFKGEVTPEEQAIAQNHPFVQQALQQQSAQAAAETLSVEAEAAESSAAEEGGSHHHHHH | soluble
12 | MSKYSDAKELASLTLGKKTEYANQYDPSLLQPVPRSLNRNDLHLSATLPFQGCDIWTLYELSWLNQKGLPQVAIGEVSIPATSANLIESKSFKLYLNSYNQTRFASWDEVQTRLVHDLSACAGETVTVNVKSLNEYTAEPIVTMQGECIDDQDIEIANYEFDDALLQGAAQGEEVSEVLHSHLLKSNCLITNQPDWGSVEIAYHGAKMNREALLRYLVSFREHNEFHEQCVERIFTDIMRYCQPQSLTVYARYTRRGGLDINPFRSSHQSAPNHNQRMARQ | not soluble
13 | MGSDKIHHHHHHMASSENTKNGNGGTLGFEAELFKAADKLRGNMEPSDYKHVALGLIFLKYISDAFEARHKALLAEDVRAAEDKDEYLADNVFWVPKEARWSHLQANAKLPAIGTLIDDAMRAIEKDNESLKGVLPKDYARPALNKVMLGELIDLISGIALNEEGDRSKDILGRVYEYFLGQFAGAEGKRGGEFYTPRSVVRVLVEMLEPYSGRVYDPCCGSGGMFVQSEKFVHEHGGRIGDIAIYGQESNYTTWRLAKMNLAVRGIDSDIRWNNEGSFHKDELRDLKADYVLANPPFNISDWGGDRLREDVRWKFGAPPVGNANYAWLQHIFHHLAPNGTAGVVLANGSMSSNQSGEGEIRRAMIEADAVDCMVALPGQLFYSTQIPACLWFLARNKNPGGGLRDRRGQVLFIDARKLGVLIDRTRRELNDDDIKRIADSYHAWRGEKEAGEYADVLGFCKSASLDEIRKHGHVLTPGRYVGAEAQADDGEPFDEVMRRLSAQWRAQQLEGQRVDDAIERNLRELGYGQ | not soluble
14 | MIPPSLPAELKAALEQLLQGTQRADAATRAERISLNYRGGGTSAPITSEADALAYAGARMPATYAAVIACLNALTAIRPDFAPATLLDVGAGPGTASWAAAQAFESLQGFTLLDANPALRNLALRLTEARRLSAIDYRLGDAGKALADAPEVTLVIASYLINELGDAARASFADALWRKTSDTLLVVEPGTPAGYQRILQLRDRLIAQGAHVIAPCPHENACPLAAPDWCHFVQRLPRSKLHLQLKSADVPFEDEKFSYVALTRVPLPQRPARVLTQPEQTKAAITAKLCTPAGKLKLAVAARRDKPAYARFRRLDWGDALEAQADLEHHHHHH | not soluble
15 | MGSDKIHHHHHHMNEAELLDPPLETPPRPAVKVRGEPLAELPQDLYIPPDALEVFLEAFEGPLDLLLYLIRKQNLDVLDIPMAALTQQYMAYVEAARATRLELAAEYLLMAAVLIDIKSRMLLPRREQADEPGEADDPRAELVRRLLEYEQMKRAGQQLDALPQAGRDFDTVSVFLPAAAKRLPSVHAEELAAAWLAILSRAKNRTHHRIGRQELSIREHMSRILKRLTPGEFMEFKELFPEASTVHELVVTFLAVLELSKETLLDVTQAEPFAPIYVKLHESAAE | not soluble
16 | MGSDKIHHHHHHMASSTSIDFKGNVTGALADRQLRANFRSALDGLRAKRLNVFSDAEELDRMRVQGEANKRRALAQLPALLEQLEHRCTANGIIVHWAETTDEANRIVLDIMRSHDATTLVKGKSMVSEEMHLNAYLERHGIEALETDLGEFIIQLNHEPPSHIIVPAVHKNRQQVARIFHEKLGEPYVDEVEKLNAIARRTLREKFRTAQVGLSGVNFAIAETGTLLLVENEGNGRMCTTVPPVHIALMGLEKVVERLEDVPPLLRLLTGSATGQLVTTYVNCITSPRKPGEKDGPREVHLVILDNGRSRMLADPQLSRTLQCIRCGTCLNHCPVYVRIGGHAYDSVYPGPIGKILTPQIDGLARKGVLATASSLCNACEEVCPVRIPIPALLRRLRRESYAPPGEGVVKGAGSKRTLFEKAVWKGWEMVYSHPALYSFVLKVLGRFGHRLPKVGPLKAWTSVRTAPRFASTSLHELTRQEGIRHE | not soluble
17 | MAHHHHHHMRCGGRWIVERSDGFVIEVEKPGVSVVFGRDIGLPSAQRMDGKYVSRQQFSVEWKASSLHVRQLGKNPTFYSMEFHTLPGDGTAEKELVCCREEETREGKQMGDGGKGLNVILVPPVSNENFLASLRGGAKGIEPATLHFPGELNLPRFTVRYVVADEKSSEEKISREMLTVPLGSSKSDEVEEDERANQPWMTGSWRGILDSVLHEQQQQQQQAER | not soluble
18 | MIGFAACECIIYNARSLKDKRAVLQRVMTRIRQKYNVSVAEIDHQDAWQRATIGLVAITSSRRATERELERALALIDSFPELERAATSFEWL | not soluble
